Assay results reported in patent publication US20120130079A1.

How the values were obtained:
[1] = molecular target: purified His-tagged Stat3 (murine Stat3, recombinant, expressed in BL21(DE3)) (murine) (UniProt P42227); experiment: fluorescence polarization competition; competitor/probe 5-carboxyfluorescein-GpYLPQTV-NH2 (10 nM), His-Stat3 150 nM
[2] = molecular target: purified His-tagged Stat3 (murine Stat3, recombinant, expressed in BL21(DE3)) (murine) (UniProt P42227); experiment: SPR (SensiQ), peptide as analyte over His-Stat3 immobilised on HisCap/Ni-NTA sensor chip

purified His-tagged Stat3 (murine Stat3, recombinant, expressed in BL21(DE3)) (murine), sequence (P42227 whole entry): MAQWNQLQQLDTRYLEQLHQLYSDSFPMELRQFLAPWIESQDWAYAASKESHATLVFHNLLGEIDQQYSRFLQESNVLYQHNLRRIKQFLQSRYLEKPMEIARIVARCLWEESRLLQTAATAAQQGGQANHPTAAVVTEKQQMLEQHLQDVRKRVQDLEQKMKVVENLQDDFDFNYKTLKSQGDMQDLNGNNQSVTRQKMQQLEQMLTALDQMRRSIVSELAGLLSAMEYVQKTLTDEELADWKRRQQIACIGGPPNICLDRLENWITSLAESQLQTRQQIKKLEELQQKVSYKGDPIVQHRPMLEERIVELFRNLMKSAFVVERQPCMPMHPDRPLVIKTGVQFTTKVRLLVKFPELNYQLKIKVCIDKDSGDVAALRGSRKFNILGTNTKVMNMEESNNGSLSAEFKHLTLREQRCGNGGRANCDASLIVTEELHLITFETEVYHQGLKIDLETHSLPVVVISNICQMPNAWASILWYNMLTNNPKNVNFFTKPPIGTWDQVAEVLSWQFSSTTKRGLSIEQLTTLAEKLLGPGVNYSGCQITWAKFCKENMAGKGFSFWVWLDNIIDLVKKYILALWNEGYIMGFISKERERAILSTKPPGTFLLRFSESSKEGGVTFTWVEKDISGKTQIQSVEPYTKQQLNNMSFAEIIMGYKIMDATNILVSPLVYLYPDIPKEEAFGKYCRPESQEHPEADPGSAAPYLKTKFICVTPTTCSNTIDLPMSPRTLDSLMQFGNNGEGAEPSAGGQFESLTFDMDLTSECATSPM

Substance: GpYLPQTV-NH2, high affinity Stat3-binding phosphoTyr peptide derived from the interleukin-6 receptor subunit gp-130
- IC50 [1]: 300 nM
- Kd [2]: 24 nM
